In the supplement of paper PMC9170038:

tested on: MS2 coat protein; experiment: apparent KD of MS2 coat protein; higher = weaker reporter binding; settings: Eterna round: R107; input ligand: theophylline 2 mM
In short: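 With or without constant ligand, designed RNA switches in 100 mM Tris-HCl pH 7.5, 80 mM KCl and 4 mM MgCl2 were titrated with SNAP-549-labelled MS2 coat protein. Concentrations went up in twofold steps from 0.7 or 1.5 nM to 3 µM. The switches had been transcribed on-chip from Illumina sequencing clusters, and apparent KD is the per-design median of normalised cluster binding-curve fits.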

Q: Which “apparent KD of MS2 coat protein” value does the source give for “CCUCACGAAAUCGAUGAAAGCAUGUGGCACCGAGGACCGGUACGGCCGCCACUCGCAUCCACACAUGAGGAUCACCCAUGUAAGA [theeternabot_exclusion_MS2_Trp_A_9]” here?
A: 59.6 nM

Q: “AUGCAUAGCGGAAGGAGCGCAAUAGAAUGACAUGAGGAUCACCCAUGUAUGUGAUGUGGGUUGCAGGUAGGUCGCCGAGUGGUAU [Exclusion - Arginine B (Freestyle 1)]” was tested. Which “apparent KD of MS2 coat protein” value did it give?
A: 62.6 nM

Q: “CUUGAUAACUGAAGGAGCGAGAAACCCUACAUGAGGAUCACCCAUGUAUACACGGGAACUUCUCAGGUAGGUCGCAGUAUGUCAA [Teveor]” was tested. Which “apparent KD of MS2 coat protein” value did it give?
A: 165 nM

Q: How did the “apparent KD of MS2 coat protein” value turn out when “UGUAUGGAAACAUGAGGAUCACCCAUGUGGCGAGGACCGGUACGGCCGCCACUCGAGCAGCAAGCGUGUAUGACGCUGCUGCAUG [SS-trypA-0]” was run?
A: 49.7 nM

Q: For “CAUAUAUAUAGAAGGAGCGUCGAAAAUGGGUAAACAUGAGGAUCACCCAUGUAAAGGGAACGACAGGUAGGUCGCUAUAUAUAUG [AstromonsSSArgB#3]”, which “apparent KD of MS2 coat protein” value is on record?
A: 208 nM

Q: Which “apparent KD of MS2 coat protein” value does the source give for “CGACACAUGAGGAUCACCCAUGUAAUGACGCGAGGACCGGUACGGCCGCCACUCGCAUGCCAAUGAGCGCAUGCGGCCUGGGUAU [Exclusion Tryp A GF6]” here?
A: 19.5 nM

Q: Which “apparent KD of MS2 coat protein” value does the source give for “GGAUAGGACACGGCCGCCACUACCUAGGAUACUAGCAACAUUUGGGUACGUGAGGAUCACCCACGUAGGACCGGGUGUCCUAUCG” here?
A: 14.5 nM

Q: For “AAUAAACAUGAGGAUCACCCAUGUAUGGAAGGAGCGGUGAAUAAACCAGGUAGGUCGCCAGUGUGAGGGUCAUCUAUGUAAUCAA [Exclusion - Arginine A (Freestyle 3)]”, which “apparent KD of MS2 coat protein” value is on record?
A: 49.3 nM

same assay, conditions: Eterna round: R107; input ligand: tryptophan 2.4 mM

Q: Which “apparent KD of MS2 coat protein” value does the source give for “CUCUUCCGGAAGGAUACCAGCUACAUGAGGAUCACCCAUGUAGGAGCGGGUUUCUAAUGUAGCCCUUGGCAGCCUUAGCCCGUCG [Querarra]” here?
A: 18 nM

Q: Which “apparent KD of MS2 coat protein” value does the source give for “CCGUAGCUAGGAAGGAGCGCAUACUUCACAUGAGGAUCACCCAUGUCGAGACGUGAGUCAGUGCAGGUAGGUCGCCUAGCUAUGG [Same State - Arginine B (Freestyle 28)]” here?
A: 15.7 nM

Q: How did the “apparent KD of MS2 coat protein” value turn out when “ACAUGAGGAUCACCCAUGUAAUUAACAGAAGGAGCGUGAUGGAUCACAGGUAGGUCGCUGUACUUAGAAAUAACUCUCAUGAAUA [JR_Nu_SSArginiA_Sub024]” was run?
A: 17.1 nM

Q: With “AGUUGCGUUGGAAGGAGCGGCAUGUGUGGGCCUCCUUACAAUACAUGAGGAUCACCCAUGUGCCAGGUAGGUCGCCAACACAGGU [Tiedmaqu]” as the sequence, how does the “apparent KD of MS2 coat protein” value read?
A: 54.8 nM

Q: How did the “apparent KD of MS2 coat protein” value turn out when “UGACAUUGCUGCGAUACCAGACAUGAGGAUCACCCAUGUGCCAAAUAAACGUACAUAAAUGUCCCUUGGCAGCGCAGCAAUGUCU [MAT - Exclusion Theophlline B - Mod of Eli - D29]” was run?
A: 61 nM

Q: For “UUUUUCGCGGGCGAUACCAGCUUGAUCGUACUGGCCUGGUACAUGAGGAUCACCCAUGUAAGCCCUUGGCAGCGCGCGGGAGAAG [Exclusion - Theophylline B Attempt #1 (HarryS)]”, which “apparent KD of MS2 coat protein” value is on record?
A: 15.2 nM

Q: “ACACAUGAGGAUCACCCAUGUGCGCUGGAAGGAGCGCAGAAUCAUGCAGGUAGGUCGCCAGUGCCCAUUACUAGAGGGAUAAGAG [Onriri]” was tested. Which “apparent KD of MS2 coat protein” value did it give?
A: 64.6 nM

Q: “ACAUGAGGAUCACCCAUGUCUGCCACUGAUACCAGCGGAAGCCAACGCCCUUGGCAGCAGAACAUGAGGAUCACCCAUGUAGGCA [Same State Theophylline A GF26]” was tested. Which “apparent KD of MS2 coat protein” value did it give?
A: 256 nM

Q: “ACAUUUAACUGAAGGAGCGUGAUAUGUACAUGAGGAUCACCCAUGUCUUACAUGUGAUAUUCACAGGUAGGUCGCAGACUAAUGA [JR_ExcArginiB_Sub004]” was tested. Which “apparent KD of MS2 coat protein” value did it give?
A: 20.3 nM

Q: For “ACAUGAAGAACAGCGGUGGGCGCGCUCGAUACCAGUACUUUGAAAUACCCUUGGCAGCGACAUGAGGAUCACCCAUGUGAGAUGA [XTheo A #3]”, which “apparent KD of MS2 coat protein” value is on record?
A: 15.7 nM

Q: Which “apparent KD of MS2 coat protein” value does the source give for “UGAUGGUACGGAAGGAGCGUGUAAGAACAAGAACAUGAGGAUCACCCAUGUAUUAAUUUAACACAGGUAGGUCGCCGAGUUAUUG [11.G]” here?
A: 16.5 nM

Q: “CUGUACAUCUCGGCCGCCACUGACAUGAGGAUCACCCAUGUAGUGCCGAUGAGAGACUUAUCGGCCAGGACCGGGAGGUGUGCAG [SSTryp B #32]” was tested. Which “apparent KD of MS2 coat protein” value did it give?
A: 11.9 nM

Q: How did the “apparent KD of MS2 coat protein” value turn out when “GGACUAACCAGAAGGAGCGACACGCAGAAACUGCAAAUUCCUCUGCACGAGGAUCACCCGUGUCAGGUAGGUCGCUGGUUAGUCG” was run?
A: 26.9 nM

Q: With “GCACGACAUGAGGAUCACCCAUGUGCAGAUACCAGUAGGAUAUCCUACCCUUGGCAGCUGAGUAGAUCUGGAGGACUAUAGGUAA [Same State Theophylline A GF9]” as the sequence, how does the “apparent KD of MS2 coat protein” value read?
A: 18.3 nM

Q: With “AGUGUAUCCAUCGAUACCAGCCACAACGUAACAUACACAUGAGGAUCACCCAUGUUGUGUGGCCCUUGGCAGCGGUGCCUGUGUA [Same State - Theophylline B Attempt #1 (HarryS)]” as the sequence, how does the “apparent KD of MS2 coat protein” value read?
A: 13.9 nM

Q: Which “apparent KD of MS2 coat protein” value does the source give for “CAUCAUGGGCUUGGACAAAUUGUGCUUGAUACCAGAAAUCACCGGUUCCCUUGGCAGCAACCCACAUGAGGAUCACCCAUGUGGA [theeternabot_exclusion_MS2_Theo_A_4]” here?
A: 23 nM

Q: How did the “apparent KD of MS2 coat protein” value turn out when “UAGAAGAACAUGCGGGCUCCGGACGGUGAUACCAGAUCGAAAAGGAUCCCUUGGCAGCACUGCACAUGAGGAUCACCCAUGUGCA [theeternabot_exclusion_MS2_Theo_A_7]” was run?
A: 10.1 nM

Q: How did the “apparent KD of MS2 coat protein” value turn out when “ACAUGAGGAUCACCCAUGUAUUACCGGGAAGGAGCGGCCGGAAGGCCAGGUAGGUCGCUCGGCGUCGUGCUGUAAAGCACGACGA [#1 Same State - Arginine A Attempt #27 (HarryS)]” was run?
A: 11.6 nM

Q: “AAACGACAUGAGGAUCACCCAUGUGCCGAUACCAGCCGGAUAUACGGCCCUUGGCAGCGGAGUAAAUCCGGAGGACAAUGGGUAA [Same State Theophylline A GF6]” was tested. Which “apparent KD of MS2 coat protein” value did it give?
A: 39.5 nM

Q: “AAUUGGCACUGAAGGAGCGAGUUUACCUAAAUAACAUGAGGAUCACCCAUGUAAAAUGGGACUCAGGUAGGUCGCAGUUGUCAAA [Same State Arginine B GF 22]” was tested. Which “apparent KD of MS2 coat protein” value did it give?
A: 61.5 nM

Q: With “GCUUGGGUGGCACAGCCCUGGCAGUGCGAUACCAGCACGGUAACGUGCCCUUGGCAGCGCACAUGAGGAUCACCCAUGUGGUGCG [#1 Exclusion - Theophylline A Attempt #25 (HarryS)]” as the sequence, how does the “apparent KD of MS2 coat protein” value read?
A: 62.6 nM

Q: Which “apparent KD of MS2 coat protein” value does the source give for “AAAACAAACUCGGCCGCCACUCCCUCCCACCCAAGGACAUGAGGAUCACCCAUGUGGCAAAGCCCGAGGACCGGGAGAAACAAAA [Same State - Trytophan B]” here?
A: 20.3 nM

Q: For “AUGUAGAACCGAAGGAGCGCGAUAACAUGAGGAUCACCCAUGUAGCUUUGGUGGCCUCGAUCGCAGGUAGGUCGCGGAAGUAGUA [Exclusion - Arginine B / A]”, which “apparent KD of MS2 coat protein” value is on record?
A: 155 nM

Q: For “AUGCAUAGCGGAAGGAGCGCAAUAGAAUGACAUGAGGAUCACCCAUGUAUGUGAUGUGGGUUGCAGGUAGGUCGCCGAGUGGUAU [Exclusion - Arginine B (Freestyle 1)]”, which “apparent KD of MS2 coat protein” value is on record?
A: 55 nM

Q: Which “apparent KD of MS2 coat protein” value does the source give for “CUUGAUAACUGAAGGAGCGAGAAACCCUACAUGAGGAUCACCCAUGUAUACACGGGAACUUCUCAGGUAGGUCGCAGUAUGUCAA [Teveor]” here?
A: 71.5 nM

Q: For “AAUAACAUGAGGAUCACCCAUGUAAAAGAUACCAGAUGCAUGAUGAUCCCUUGGCAGCUUAACGCUGAUUGGAAACAAUCAGCGA [Mat - Same State Theophlline A - Mod of Eli - D9]”, which “apparent KD of MS2 coat protein” value is on record?
A: 14.7 nM

Q: For “CAAGAAUGACGUACAGAUAACAAUAACGAUACCAGUACAUCAUUAUACCCUUGGCAGCGUUUCACAUGAGGAUCACCCAUGUACA [theeternabot_exclusion_MS2_Theo_A_14]”, which “apparent KD of MS2 coat protein” value is on record?
A: 17.6 nM

Q: For “UGUAUGGAAACAUGAGGAUCACCCAUGUGGCGAGGACCGGUACGGCCGCCACUCGAGCAGCAAGCGUGUAUGACGCUGCUGCAUG [SS-trypA-0]”, which “apparent KD of MS2 coat protein” value is on record?
A: 25.1 nM

Q: “CAUAUAUAUAGAAGGAGCGUCGAAAAUGGGUAAACAUGAGGAUCACCCAUGUAAAGGGAACGACAGGUAGGUCGCUAUAUAUAUG [AstromonsSSArgB#3]” was tested. Which “apparent KD of MS2 coat protein” value did it give?
A: 175 nM

Q: How did the “apparent KD of MS2 coat protein” value turn out when “GGAUAGGACACGGCCGCCACUACCUAGGAUACUAGCAACAUUUGGGUACGUGAGGAUCACCCACGUAGGACCGGGUGUCCUAUCG” was run?
A: 20.4 nM

Q: For “GCACUACAUGAGGAUCACCCAUGUGCAGAUACCAGAGGUGUAUGCCUCCCUUGGCAGCUGCGUCGCUCUGGAAGCCUAUUGGUUU [Same State Theophylline A GF16]”, which “apparent KD of MS2 coat protein” value is on record?
A: 18.4 nM

Q: For “AAUAAACAUGAGGAUCACCCAUGUAUGGAAGGAGCGGUGAAUAAACCAGGUAGGUCGCCAGUGUGAGGGUCAUCUAUGUAAUCAA [Exclusion - Arginine A (Freestyle 3)]”, which “apparent KD of MS2 coat protein” value is on record?
A: 49.5 nM
